Reference: the supplement of paper PMC10567573

B1: KCNA1 (parent)
chain: LKASMRELGLLIFFLFIGVILFSS

Variants of: B1
Experiment: protein stability index of a GFP-peptide fusion (GPS, HEK-293T) (PSI 1-6); higher = more stable
Details: c terminus: a fixed tail appended
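Further: lentivirally expressed fusions sorted by FACS into six bins by GFP to DsRed ratio, PSI derived from sequencing read proportions per bin multiplied by bin number.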

Protein stability index, by site and new letter:
M5: V 2.79 | Q 3.33 | T 2.21 | P 3.22 | N 2.51 | D 2.29 | Y 2.42 | C 2.92 | S 2.33 | L 1.82 | I 2.19 | R 1.76 | F 1.98 | K 1.94 | W 1.78 | A 3.19 | G 1.28
I12: M 2.02 | L 2.86 | D 2.94 | Y 3.01 | Q 2.17 | N 3.05 | K 2.8 | P 1.95 | F 2.38 | R 4.06 | W 3.17 | H 3.35 | S 1.31 | C 2.52 | V 1.35 | T 4.06 | A 1.87 | G 3.16 | E 3.27
F14: P 4.04 | D 2.93 | R 2.41 | Y 3.01 | W 3.78 | V 2.82 | S 3.66 | E 2.74 | H 3.41 | A 4.15 | C 1.95 | K 2.65 | M 2.48 | L 2.98 | I 2.74 | G 3.88 | N 2.85 | T 2.79
F13: I 1.77 | L 2.16 | D 3.37 | S 3.56 | N 3.41 | P 3.61 | Q 4.29 | A 1.57 | H 3.07 | V 1.63 | Y 4.13 | K 2.76 | M 1.32 | G 2.98 | R 2.03 | E 2.6
V19: W 2.1 | F 1.99 | P 2.51 | C 1.65 | R 2.66 | D 2.65 | I 2.27 | K 4.72 | Y 1.86 | N 2.33 | M 2.52 | S 3.99 | Q 3.09 | L 1.59 | G 2.85 | T 3.34 | A 2.58 | H 4.02
L10: M 3.58 | R 2.83 | I 2.42 | W 2.58 | F 2.27 | V 1.23 | D 3.28 | A 2.62 | H 3.23 | N 4.61 | P 2.75 | C 2.07 | Y 2.13 | K 4 | Q 2.94 | T 3.06 | S 2.77 | G 4.36
L15: N 3.33 | A 2.44 | T 3.59 | F 1.79 | K 2.54 | P 2.29 | Y 2.55 | I 1.55 | W 2.7 | G 2.53 | M 1.7 | H 2.11 | R 2.01 | C 2.37 | S 2.67
R6: G 2.63 | M 3.15 | L 3.12 | V 2.45 | I 3.16 | P 2.36 | Y 3.07 | H 3.36 | A 3.59 | N 2.85 | W 2.35 | S 2.88 | K 1.61 | Q 2.28 | D 3.02 | C 3.31 | T 3.38
L11: T 4.58 | D 3.53 | W 2.73 | K 3.54 | I 2.49 | G 3.63 | C 4.25 | Y 3.48 | V 1.61 | R 3.65 | F 1.74 | P 1.89 | E 2.36 | A 3.12 | M 1.73 | H 2.95
K2: P 2.02 | L 1.81 | Q 3.04 | M 2.15 | V 3.35 | W 2.4 | T 2.01 | R 2.32 | Y 2.35 | N 2.18 | S 2.19
A3: H 2.89 | G 1.65 | E 1.78 | Y 2.06 | C 1.92 | W 2.14 | K 2.16 | T 2.12 | D 2.46 | P 2.17 | M 1.58 | L 1.77 | Q 2.12 | I 1.53 | V 1.67 | S 2.37 | F 1.72 | N 1.86 | R 1.74
F16: R 1.32 | V 2.07 | E 3.14 | K 2.35 | I 2.25 | T 2.77 | P 2.96 | S 2.55 | D 1.64 | A 2.14 | W 2.38 | Y 3.35 | H 3.79 | M 2.17 | G 3.06 | L 2.91
G18: L 1.82 | I 4.5 | S 3.74 | A 1.77 | Y 3.18 | D 1.87 | F 3.9 | V 3.15 | T 3.2 | Q 2.75 | N 3.02 | P 1.86 | C 3.63 | W 2.21 | K 2.44 | M 2.2
E7: I 2.77 | Q 1.68 | H 2.29 | G 2.13 | K 2.21 | T 2.01 | D 2.72 | F 1.84 | M 1.95 | V 1.99 | L 2.16 | C 1.65 | A 2.13 | W 1.42 | S 1.88 | N 1.55 | Y 1.74 | R 2.07 | P 2.28
S4: V 2.65 | C 2.87 | P 3.03 | T 2.46 | R 2.09 | Y 2.17 | F 2.15 | K 1.62 | L 4.39 | I 1.69 | G 1.91 | A 3.21 | D 3.58 | Q 2.55 | H 2.07 | E 3.02 | M 1.97 | N 2.31 | W 1.55
L21: Q 3.29 | N 2.64 | P 2.86 | G 3.19 | M 2.32 | I 2.17 | C 2.43 | H 2.98 | K 1.88 | F 3.04 | D 3.39
L8: D 2.32 | P 3.22 | R 2.8 | M 2.26 | H 2.1 | V 2.42 | K 2.58 | Y 2.58 | E 4 | S 2.08 | A 2.58 | Q 2.55 | T 2.48 | I 2.27 | C 2.28 | G 1.65 | F 2.39 | W 2.85
I20: M 3.52 | K 3.18 | F 2.32 | Q 2.9 | T 2.4 | E 2.38 | V 3.45 | D 3.22 | A 3.3 | W 2.02 | Y 2.65 | C 2.75 | S 2.1 | L 1.96
G9: F 2.07 | T 1.72 | K 3 | S 1.98 | M 2.37 | H 1.8 | I 2.18 | W 1.54 | L 1.83 | P 3.05 | C 1.29 | Y 2.34 | A 1.75 | Q 4.69 | D 3.82 | R 2.48 | V 1.71 | E 4.03
I17: R 2.71 | C 2.56 | L 1.95 | E 1.91 | Y 2.24 | S 2.3 | F 2.79 | Q 2.82 | A 2.83 | H 2.85 | V 2.74 | D 2.29 | N 4.03 | T 2.48 | W 3.85 | M 3.35 | K 2.83 | G 2.88 | P 2.77
